In the assay the target is monkey Mpl (monkey).

As to hTPO (ligand), the EC50 (read off the curve) (growth of BaF3-monkey Mpl cells, WST-8) [B] is 0.01 nM.

Values taken from patent US20090297501A1.
